# Assay results from publication PMC5829272.
# B1: Dentin matrix protein 1 (DMP1): S89G-DMP1 (protein)
# parent chain: MKTVILLVFLWGLSCALPVARYHNTESESSEERTGDLAGSPPPPTNSESSEESQASPEGQANSDHTDSSESGEELGYDRGQYRPAGGLSKSTGTGADKEDDEDDSGDDTFGDEDNDLGPEEGQWGGPSKLDSDEDSTDTTQSSEDSTSQENSAQDTPSDSKDHDSEDEADSRPEAGDSTQDSESEEQRVGGGSEGESSHGDGSEFDDEGMQSDDPESTRSDRGHARMSSAGIRSEESKGDHEPTSTQDSDDSQSVEFSSRKSFRRSHVSEEDYRGELTDSNSRETQSDSTEDTASKEESRSESQEDTAESQSQEDSPEGQDPSSESSEEAGEPSQESSSESQEGVTSESRGDNPDNTSQAGDQEDSESSEEDSLNTFSSSESQSTEEQADSESNESLSLSEESQESAQDGDSSSQEGLQSQSASTESRSQESQSEQDSRSEEDSDSQDSSRSKEESNSTGSASSSEEDIRPKNMEADSRKLIVDAYHNKPIGDQDDNDCQDGY
# Columns and labels:
# cultured NSCs = settings: glycan lost; control: wild type NSCs
# RNA sequencing of NSCs = settings: glycan lost; control: wild type NSCs
# cultured NSCs in vitro = settings: glycan lost; control: wild type NSCs
# [1] = qPCR, Western blot, immunofluorescence; settings: glycan lost; control: wild type
# [2] = GFAP/lectin immunofluorescence in cortex; settings: glycan lost; control: wild type mice
# [3] = DMP1 immunofluorescence intensity in brain; settings: glycan lost; control: wild type mice
# [4] = RNA sequencing of primary astrocyte cultures; settings: glycan lost; control: wild type astrocytes
# [5] = immunofluorescence, retrosplenial granular cortex; settings: glycan lost; control: wild type mice
# [6] = spontaneous differentiation after EGF/bFGF withdrawal; settings: glycan lost; control: wild type NSCs
# [7] = intraperitoneal Evans blue, leakage area in brain sections; settings: glycan lost; control: wild type mice
# [8] = transmission electron microscopy, retrosplenial granular cortex; settings: glycan lost; control: wild type mice
protein,measurement,setting,value
B1,other: neural stem cell apoptosis,cultured NSCs,no change
same,other: neural stem cell transcriptome,RNA sequencing of NSCs,changes
same,other: neural stem cell proliferation,cultured NSCs in vitro,increases
same,other: AQP4 expression in astrocytes and brain,[1],decreases
same,other: astrocyte end feet coverage of blood vessels,[2],decreases
same,expression_or_secretion,[3],no change
same,other: astrocyte transcriptome,[4],changes
same,other: laminin and ZO1 expression at vasculature,[5],decreases
same,other: neural stem cell differentiation,[6],no change
same,other: blood-brain barrier integrity,[7],decreases
same,other: astrocyte cell-cell adhesion,[8],decreases
